US20250034271A1 (EUCURE BEIJING BIOPHARMA, published 2025)

T1: mouse CD40 (mCD40) on transfected CHO cells (mouse, UniProt P27512 20-289)
T1 sequence: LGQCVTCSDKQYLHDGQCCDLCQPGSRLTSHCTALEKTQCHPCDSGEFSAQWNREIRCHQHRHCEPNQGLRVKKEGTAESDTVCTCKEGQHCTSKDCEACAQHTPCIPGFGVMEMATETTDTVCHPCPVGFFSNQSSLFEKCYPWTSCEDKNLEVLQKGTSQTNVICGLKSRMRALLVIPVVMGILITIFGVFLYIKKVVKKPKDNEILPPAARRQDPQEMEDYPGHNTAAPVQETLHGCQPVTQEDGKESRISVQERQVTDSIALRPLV

T2: monkey (rhesus macaque) CD40 (rmCD40) on transfected CHO cells (rhesus macaque, UniProt P25942 21-277 (human entry))
T2 construct: also called monkey CD40
T2 chain: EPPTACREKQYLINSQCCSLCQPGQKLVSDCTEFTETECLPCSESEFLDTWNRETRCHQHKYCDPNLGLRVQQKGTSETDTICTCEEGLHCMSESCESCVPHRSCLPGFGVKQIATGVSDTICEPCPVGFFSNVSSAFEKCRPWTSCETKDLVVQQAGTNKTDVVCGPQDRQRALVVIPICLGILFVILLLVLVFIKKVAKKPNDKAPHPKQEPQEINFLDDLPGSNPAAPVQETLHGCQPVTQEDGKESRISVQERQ


Assays:
[1] = biological target: T1, mouse CD40 (mCD40) on transfected CHO …; assay: flow cytometry, CHO-mCD40 cells, anti-mIgG Fc-FITC
Procedure: (§1) 25 μl CHO cells were added to each well. 25 μl purified anti-hCD40 antibodies (1 μg/ml) (7F10, 6A7, or 4H6) were added to each well and were incubated at 4° C. for 30 minutes.
(§2) After being washed with PBS (1200 rmp, 5 min) twice, 50 μl of FITC labeled anti-mouse IgG Fc antibody (anti-mIgG Fc-FITC) was added into each well 1:100 dilution, followed by incubated at 4° C. for 30 minutes, and then PBS wash (1200 rmp, 5 min). The signals for FITC were detected by flow cytometry.

[2] = biological target: T1, mouse CD40 (mCD40) on transfected CHO …; assay: flow cytometry, CHO-mCD40 cells, antibody 1 µg/ml, anti-mIgG Fc-FITC; x: Anti-mouse-IgG-Fc-FITC, y: SSC-H
Procedure: as §1, §2

[3] = biological target: T2, monkey (rhesus macaque) CD40 (rmCD40) …; assay: flow cytometry, CHO-rmCD40 cells, antibody 1 µg/ml, anti-mIgG Fc-FITC; x: Anti-mouse-IgG-Fc-FITC, y: SSC-H
Procedure: as §1, §2

[4] = biological target: T3, chimeric (mouse and human) CD40 (chiCD40) on transfected CHO cells (chimeric (mouse and human)); assay: flow cytometry, CHO-chiCD40 cells, antibody 1 µg/ml, anti-mIgG Fc-FITC; x: Anti-mouse-IgG-Fc-FITC, y: SSC-H
T3 construct: also called human-mouse chimeric CD40; chimeric CD40
Procedure: as §1, §2

[5] = biological target: T4, human CD40 (hCD40) on transiently transfected CHO cells (human, UniProt P25942 21-277); assay: flow cytometry, CHO cells with hCD40, antibody titrated then hCD40L-hFc added (blocked ligand: hCD40L-hFc); y: hCD40 Ligand-hFc, x: Anti-mouse-IgG-Fc-PE
T4 construct: also called TNF Receptor Superfamily Member 5; TNFRSF5
Procedure: The anti-hCD40 antibodies were collected from mouse ascites fluid and purified by chromatography. 25 μl CHO cells transiently transfected with human CD40 were added to each well in a plate. The purified antibodies were titrated to final concentrations of 50, 5, 0.5, 0.05, and 0.005 μg/ml. The titrated antibodies were added to each well at 25 μl per well at 4° C. and incubated for 30 minutes.
hCD40 ligand-hFc was expressed by H293T cells. 50 μl of hCD40L-hFc was added to each well (1:500). The cells with hCD40L-hFc and the antibodies were incubated at 4° C. for 15 minutes.
After being washed with phosphate-buffered saline (PBS) twice, 50 μl of PE labeled anti-mouse IgG Fc antibody (anti-mIgG Fc-PE) at 1:500 dilution and FITC-labeled anti-human IgG Fc antibody (anti-hIgG Fc-FITC) at 1:100 dilution were added into each well, and incubated for 30 minutes at 4° C., followed by PBS wash. The signals for FITC and PE were determined by flow cytometry.

binding result [1]	% cells in the Anti-mouse-IgG-Fc-FITC positive gate [2] [%]	% cells in the Anti-mouse-IgG-Fc-FITC positive gate [3] [%]	% cells in the Anti-mouse-IgG-Fc-FITC positive gate [4] [%]	% cells lower left (ligand- / antibody-) at 0.005µg/mL [5] [%]	% cells lower left (ligand- / antibody-) at 0.05µg/mL [5] [%]	% cells lower left (ligand- / antibody-) at 0.5µg/mL [5] [%]	% cells lower left (ligand- / antibody-) at 5µg/mL [5] [%]	% cells lower left (ligand- / antibody-) at 50µg/mL [5] [%]	% cells lower right (ligand- / antibody+) at 0.005µg/mL [5] [%]	% cells lower right (ligand- / antibody+) at 0.05µg/mL [5] [%]	% cells lower right (ligand- / antibody+) at 0.5µg/mL [5] [%]	% cells lower right (ligand- / antibody+) at 5µg/mL [5] [%]	% cells lower right (ligand- / antibody+) at 50µg/mL [5] [%]	% cells upper left (ligand+ / antibody-) at 0.005µg/mL [5] [%]	% cells upper left (ligand+ / antibody-) at 0.05µg/mL [5] [%]	% cells upper left (ligand+ / antibody-) at 0.5µg/mL [5] [%]	% cells upper left (ligand+ / antibody-) at 5µg/mL [5] [%]	% cells upper left (ligand+ / antibody-) at 50µg/mL [5] [%]	% cells upper right (ligand+ / antibody+) at 0.005µg/mL [5] [%]	Binder	also measured
no binding	1.56	88.5	87.8	35.7	16.8	11.1	11.4	7.76	3.7	26.9	63.6	80.8	83.7	1.95	0	0	0	0.185	58.7	mouse anti-hCD40 antibody 07-4H6 (antibody, V domains shown, Mouse antibody purified from ascites) VH: EVKLQESGPSLVKPSQTLSLTCSVTGDSVSSGYWNWIRKFPGNKLEYMGFISYSGSTYYTPSLKSRISITRDTSKNQFYLQLNSVTTEDTATYFCARFRRYDDGVDYWGQGTTLTVSS VL: DIQMTQSPSSLSASLGERVSLTCRASHEISGYLSWIQQKPDGTIKRLINAASTLASGVPKRFSGSRSGSEYSLTINSLESEDFADYYCLQYSSYPWTFGGGTKLEIK	% cells upper right (ligand+ / antibody+) at 0.05µg/mL [5]: 56.4%; % cells upper right (ligand+ / antibody+) at 0.5µg/mL [5]: 25.4%; % cells upper right (ligand+ / antibody+) at 5µg/mL [5]: 7.75%; % cells upper right (ligand+ / antibody+) at 50µg/mL [5]: 8.32%
no binding	1.16	96.4	94.6	41.2	14.9	3.18	6.37	7.92	4.1	31.6	45.1	67.8	69.7	1.44	0	0	0	0.108	53.2	mouse anti-hCD40 antibody 06-6A7 (antibody, V domains shown, Mouse antibody purified from ascites) VH: QVQLQQPGAELVKPGASVKLSCKASGYTFISYYIYWVKQRPGQGLEWIGGINPRNGGTNFNEKFKSKATLTVDKSSSTAYMQLSSLTSEDSAVYYCTRHGNGVYWGQGTTLTVSS VL: DVVMTQTPLSLPVSLGDQASISCRSSQSLLHSNGNTYLHWYLQKPGQSPNHLIYQVSNRFSGVPDRFSGSGSGTDFTLKISRVEAEDLGVYFCSQTTHVPWTFGGGTKLEIK	% cells upper right (ligand+ / antibody+) at 0.05µg/mL [5]: 53.5%; % cells upper right (ligand+ / antibody+) at 0.5µg/mL [5]: 51.7%; % cells upper right (ligand+ / antibody+) at 5µg/mL [5]: 25.9%; % cells upper right (ligand+ / antibody+) at 50µg/mL [5]: 22.3%
